Results from paper PMC5492865.

Target: papain (UniProt P00784)
UniProt P00784, sequence (P00784 134-345): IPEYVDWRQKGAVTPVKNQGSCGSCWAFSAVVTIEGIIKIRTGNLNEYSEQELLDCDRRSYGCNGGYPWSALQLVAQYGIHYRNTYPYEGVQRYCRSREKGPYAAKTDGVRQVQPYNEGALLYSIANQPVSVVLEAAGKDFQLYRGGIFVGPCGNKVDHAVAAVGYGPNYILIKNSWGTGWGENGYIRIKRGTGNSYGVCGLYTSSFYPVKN

For “salivary tick cystatin OmC2, recombinant, from insect Sf9 cells, with C-terminal oligo His-tag (non-labeled) (natural protein)”, which active site titration of 10 nM papain with cystatin OmC2 (substrate 10 μM Z-Phe-Arg-AMC, 0.1 M phosphate buffer pH 6.0): molar ratio at which dF/dt = 0 (text: the inhibitor was 88% active) is on record?
The active site titration of 10 nM papain with cystatin OmC2 (substrate 10 μM Z-Phe-Arg-AMC, 0.1 M phosphate buffer pH 6.0): molar ratio at which dF/dt = 0 (text: the inhibitor was 88% active) was 1.16 molar ratio.
